Experimental data published in publication PMC6345366 (Chemical communications (Cambridge, England), 2017).
Square brackets hold non-standard residues; d marks the D form. Ends that are not written are not given here.

T1: KDM4A tandem tudor domain (human)
T1 sequence (O75164 whole entry, looked up): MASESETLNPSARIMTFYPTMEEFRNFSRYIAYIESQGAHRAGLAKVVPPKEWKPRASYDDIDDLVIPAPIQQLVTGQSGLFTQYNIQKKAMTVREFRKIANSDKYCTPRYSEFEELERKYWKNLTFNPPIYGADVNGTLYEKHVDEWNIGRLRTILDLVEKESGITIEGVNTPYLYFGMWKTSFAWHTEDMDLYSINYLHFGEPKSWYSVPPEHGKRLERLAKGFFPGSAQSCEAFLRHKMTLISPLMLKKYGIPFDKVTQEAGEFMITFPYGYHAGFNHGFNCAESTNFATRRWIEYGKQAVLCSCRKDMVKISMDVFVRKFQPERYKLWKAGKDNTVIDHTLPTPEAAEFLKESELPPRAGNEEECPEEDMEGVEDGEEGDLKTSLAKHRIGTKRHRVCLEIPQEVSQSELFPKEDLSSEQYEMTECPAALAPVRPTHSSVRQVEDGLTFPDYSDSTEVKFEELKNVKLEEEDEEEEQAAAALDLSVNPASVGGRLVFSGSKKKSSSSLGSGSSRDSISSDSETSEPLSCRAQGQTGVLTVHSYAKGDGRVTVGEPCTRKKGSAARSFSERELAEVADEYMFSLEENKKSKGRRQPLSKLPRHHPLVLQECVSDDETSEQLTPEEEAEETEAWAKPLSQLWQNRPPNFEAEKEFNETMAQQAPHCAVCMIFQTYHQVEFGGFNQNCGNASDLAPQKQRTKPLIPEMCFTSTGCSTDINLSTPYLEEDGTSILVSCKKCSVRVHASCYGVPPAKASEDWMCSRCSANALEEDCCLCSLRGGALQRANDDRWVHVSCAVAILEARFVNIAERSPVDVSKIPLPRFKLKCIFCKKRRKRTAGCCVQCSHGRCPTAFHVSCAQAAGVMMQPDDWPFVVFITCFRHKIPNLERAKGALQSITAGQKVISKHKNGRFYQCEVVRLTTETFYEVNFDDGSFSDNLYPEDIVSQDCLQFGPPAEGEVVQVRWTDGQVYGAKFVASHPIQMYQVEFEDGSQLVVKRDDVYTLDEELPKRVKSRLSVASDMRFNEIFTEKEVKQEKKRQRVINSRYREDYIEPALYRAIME

T2: TAF3 PHD zinc finger
T2 sequence (Q5VWG9 whole entry, species assumed, looked up): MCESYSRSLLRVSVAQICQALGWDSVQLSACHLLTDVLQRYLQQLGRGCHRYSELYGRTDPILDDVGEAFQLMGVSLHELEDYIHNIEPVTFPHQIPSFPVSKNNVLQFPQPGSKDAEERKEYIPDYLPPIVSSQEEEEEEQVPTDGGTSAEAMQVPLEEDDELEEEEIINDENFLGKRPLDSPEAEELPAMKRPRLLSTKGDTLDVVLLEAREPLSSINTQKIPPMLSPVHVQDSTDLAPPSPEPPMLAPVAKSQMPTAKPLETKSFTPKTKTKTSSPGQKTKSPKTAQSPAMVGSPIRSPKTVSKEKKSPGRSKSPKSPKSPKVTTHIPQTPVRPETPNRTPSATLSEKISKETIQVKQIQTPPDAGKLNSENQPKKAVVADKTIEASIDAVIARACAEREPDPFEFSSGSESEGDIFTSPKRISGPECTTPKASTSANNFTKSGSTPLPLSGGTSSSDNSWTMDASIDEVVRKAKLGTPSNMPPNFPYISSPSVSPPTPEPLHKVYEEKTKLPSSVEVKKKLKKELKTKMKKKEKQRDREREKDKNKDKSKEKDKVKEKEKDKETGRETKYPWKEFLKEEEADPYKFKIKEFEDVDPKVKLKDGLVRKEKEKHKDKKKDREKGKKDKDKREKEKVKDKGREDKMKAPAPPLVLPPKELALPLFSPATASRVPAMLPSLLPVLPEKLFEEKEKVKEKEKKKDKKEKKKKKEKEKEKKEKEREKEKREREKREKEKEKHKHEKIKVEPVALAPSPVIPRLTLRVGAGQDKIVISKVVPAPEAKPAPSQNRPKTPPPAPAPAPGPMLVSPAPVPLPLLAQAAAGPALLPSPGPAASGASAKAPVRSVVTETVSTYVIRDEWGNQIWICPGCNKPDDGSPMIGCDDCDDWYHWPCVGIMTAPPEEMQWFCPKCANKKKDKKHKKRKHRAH

T3: KDM5A PHD3 (third PHD zinc finger of KDM5A) (UniProt P29375 1609-1659)
T3 sequence: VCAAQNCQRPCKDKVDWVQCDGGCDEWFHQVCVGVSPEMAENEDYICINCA


Experiments:
Assay in all cases: ITC
[1] = target: T1, KDM4A tandem tudor domain (human)
[2] = target: SGF29 tandem tudor domain
SGF29 tandem tudor domain, sequence (Q96ES7 whole entry, the tested form may be a part): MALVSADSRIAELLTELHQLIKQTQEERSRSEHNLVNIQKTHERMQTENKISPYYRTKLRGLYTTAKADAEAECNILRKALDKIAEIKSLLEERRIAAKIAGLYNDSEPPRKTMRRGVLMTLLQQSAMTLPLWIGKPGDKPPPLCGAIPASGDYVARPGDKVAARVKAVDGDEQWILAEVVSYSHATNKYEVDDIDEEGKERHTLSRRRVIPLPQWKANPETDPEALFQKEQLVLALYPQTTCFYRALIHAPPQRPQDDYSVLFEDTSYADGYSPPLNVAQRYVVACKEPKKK

TAF3 PHD zinc finger = target: T2, TAF3 PHD zinc finger
[3] = target: T3, KDM5A PHD3 (third PHD zinc finger of …)

dH [1] | dH [2] | dH (TAF3 PHD zinc finger) | Kd [3] | dH [3] | Binder
-13.1 kcal/mol | -7.7 kcal/mol | -10.1 kcal/mol | 110 nM | -11.1 kcal/mol | ARTK(Me3)QTARKS [10-mer histone peptide L-H3K4me3]
– | – | – | 1200 nM | -7.8 kcal/mol | ART[dK](Me3)QTARKS [10-mer histone peptide D-H3K4me3]
